Experiment [1] concerns the target T1, human epidermal growth factor receptor 2 (HER2), membrane-bound on cells (human, UniProt P04626 23-1255). Put plainly: FACS binding; A431 cells.
Experiment [2] addresses T1, human epidermal growth factor receptor …. Put plainly: FACS binding; AU565 cells.

The EC50 is the midpoint of the concentration-response curve. Read a low EC50 as greater potency.

B1: HuMab 098 (antibody, V domains shown)
VH: EVQLLESGGGLVQPGGSLRLSCAASGFTFSNYGMSWVRQAPGKGLEWVSAISGSAYSTYYADSVKGRFTISRDNSKNTLWLQMNSLRAEDTAVYYCAKAHYHGSGSYYTLFDYWGQGTLVTVSS
VL: DIQMTQSPSSLSASVGDRVTITCRASQGISSWLAWYQQKPEKAPKSLIYAASSLQSGVPSRFSGSGSGTDFTLTISSLQPEDFATYYCQQYNSYPYTFGQGTKLEIK
For the molecule B1, the EC50 came out at 0.101 µg/mL in experiment [1] and 0.336 µg/mL in experiment [2].

B2: HuMab 050 (antibody, V domains shown)
VH: EVQLLESGGGLVQPGGSLRLSCAASGFTFSSYAMNWVRQAPGKGLEWVSAISGRGGTTYYADSVKGRFTISRDNSKNTLYLQMSSLRAEDTAVYYCAKARANWDYFDYWGQGTLVTVSS
VL: DIQMTQSPSSVSASVGDRVTITCRASQGISSWLAWYQHKPGKAPKLLIYAASILQSGVPSRFSGSGSGTDFTLTISSLQPEDFATYYCQQANSFPITFGQGTRLEIK
With B2, the EC50 in experiment [1] was found to be 1.14 µg/mL; in experiment [2], 0.722 µg/mL.

B3: HuMab 025 (antibody, V domains shown)
VH: QVQLQQWGAGLLKPSETLSLTCAVYGGSFSDYYWNWIRQPPGKGLEWIGEIHHSGSTNYNPSLKSRVTISVDTSKNQFSLKLSSVTAADTAVYYCARGYYDSGVYYFDYWAQGTLVTVSS
VL: DIQMTQSPSSLSASVGDRVTITCRASQGISRWLAWYQQKPEKAPKSLIYAASSLRSGVPSRFSGSGSGTDFTLTISSLQPEDFATYYCQQYNSYPITFGQGTRLEIK
With B3, the EC50 in experiment [1] is 0.128 µg/mL; in experiment [2], 0.58 µg/mL.

B4: HuMab 159 (antibody, V domains shown)
VH: EVQLVQSGAEVKKPGESLKISCKGSGYNFTSYWIGWVRQMPGKGLEWMGIIYPGDSDTRYSPSFQGQVTISADKSISTAYLQWSSLKASDTAMYYCARWGTYYDILTGYFNWFDPWGQGTLVTVSS
VL: DIQMTQSPSSLSASVGDRVTITCRASQGISSWLAWYQQKPEKAPKSLIYAASSLQSGVPSRFSGSGSGTDFTLTISSLQPEDFATYYCQQYYIYPWTFGQGTKVEIK
With B4, the results for the EC50 in experiment [1] and in experiment [2] were 0.855 µg/mL and 1.3 µg/mL, respectively.

B5: HuMab 153 (antibody, V domains shown)
VH: QVQLVESGGGVVQPGRSLRLSCAASGFTFSDYVIHWVRQAPGKGLEWVTVISYDGSNKYYADSVKGRFTISRDNSKNTLYLQMNSLSAEDTAMYYCARGGITGTTGVFDYWGQGTLVTVSS
VL: DIQMTQSPSSLSASVGDRVTITCRASQGISSWLAWYQQKPEKAPKSLIYDASSLQSGVPSRFSGSGYGTDFSLTISSLQPEDFAIYYCQQYKSYPITFGQGTRLEIK
For the molecule B5, the 50% effective concentration (EC50) stood at 0.244 µg/mL in experiment [1] and 0.626 µg/mL in experiment [2].

B6: HuMab 132 (antibody, V domains shown)
VH: QVQLVQSGAEVKKPGASVKVSCKASGYTFTSYGISWVRQAPGQGLEWMGWISAYNGNSNYVQKFQGRVTMTTDTTTSTAYMELRSLTSDDTAVYYCAREYSYDSGTYFYYGMDVWGQGTTVTVSS
VL: EIVLTQSPATLSLSPGERATLSCRASQSVSSYLAWYQQKPGQAPRLLIYDASNRATGIPARFSGSGSGTDFTLTISSLEPEDFAVYYCQQRSNWPMYTFGQGTKLEIK
As for B6, the EC50 turned out to be 0.068 µg/mL in experiment [1] and 0.911 µg/mL in experiment [2].

B7: HuMab 129 (antibody, V domains shown)
VH: QVQLVESGGGVVQPGRSLRLSCAASGFTFSTFAIHWVRQAPGKGLEWVAVISYDGGHKFYADSVKGRFTISRDNSKNTLYLQMNSLRAEDTAMYYCARGLGVWGAFDYWGQGTLVTVSS
VL: EIVLTQSPATLSLSPGERATLSCRASQSVSSYLAWYQQKPGQAPRLLIYDASNRATGIPARFSGSGSGTDFTLTISSLEPEDFAVYYCQQRSNWWTFGQGTKVEIK
In the case of B7, the half-maximal effective concentration (EC50) was determined as 0.316 µg/mL in experiment [1] and 0.578 µg/mL in experiment [2].

B8: HuMab 084 (antibody, V domains shown)
VH: QVQLVQSGAEVKKPGSSVKVSCKASGGTFRTYAINWVRQAPGQGLEWMGRINTVLGIVNHAQKFQGRVTITADKSTNTAYMELNSLRSEDTAVYYCAREKGVDYYYGIEVWGQGTTVTVSS
VL: DIQMTQSPSSVSASVGDRVTITCRASQGISSWLAWYQHKPGKAPKLLIYVASTLQSGVPSRFSGSGSGTDFTLTISSLQPEDFATYYCQQANSFPLTFGGGTKVEIK
With B8, the values for the EC50 in experiment [1] and in experiment [2] were 0.498 µg/mL and 0.491 µg/mL, respectively.

B9: HuMab 169 (antibody, V domains shown)
VH: QVQLVQSGAEVKKPGASVKVSCKASGYTFTNYGISWVRQAPGQGLEWMGWLSAYSGNTIYAQKLQGRVTMTTDTSTTTAYMELRSLRSDDTAVYYCARDRIVVRPDYFDYWGQGTLVTVSS
VL: EIVLTQSPATLSLSPGERATLSCRASQSVSSYLAWYQQKPGQAPRLLIYDASNRATGIPARFSGSGSGTDFTLTISSLEPEDFAVYYCQQRSNWPRTFGQGTKVEIK
On to B9, for which the EC50 in experiment [1] worked out at 0.415 µg/mL; in experiment [2], 0.908 µg/mL.

B10: HuMab 127 (antibody, V domains shown)
VH: EVQLVQSGAEVKKPGESLTISCKGSGYSFSIYWIGWVRQMPGKGLEWMGIIFPGDSDIRYSPSFQGQVTISADKSISTAYLQWSSLKASDTAMYYCARQPGDWSPRHWYFDLWGRGTLVTVSS
VL: VIWMTQSPSLLSASTGDRVTISCRMSQGISSYLAWYQQKPGKAPELLIYAASTLQSGVPSRFSGSGSGTDFTLTISYLQSEDFATYYCQQYYSFPLTFGGGTKVEIK
As to B10, the EC50 in experiment [1] amounted to 0.27 µg/mL; in experiment [2] it was 2.29 µg/mL.

The record behind these values is patent US20170369590A1 (published 2017).
